One assay has as its target T1, Bcl-B (Homo sapiens, UniProt Q9HD36).
T1 construct: expressed in transfected cells; host or cells: HEK293T
T1 sequence (Q9HD36 1-204): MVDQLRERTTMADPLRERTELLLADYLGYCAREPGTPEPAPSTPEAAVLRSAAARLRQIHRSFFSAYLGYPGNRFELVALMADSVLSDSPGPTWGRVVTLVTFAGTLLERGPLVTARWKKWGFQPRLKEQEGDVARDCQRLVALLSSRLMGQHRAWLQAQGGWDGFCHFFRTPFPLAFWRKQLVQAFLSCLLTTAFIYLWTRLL
Nature of the assay: Co-immunoprecipitation with Bcl-2 family proteins in HEK293T cells. In kind it is binding. From the text: (§1) (A) HEK293T cells were transfected with pcDNA3-myc plasmids encoding Bax or other Bcl-2 family proteins with GFP, GFP-HN, or GFP-HN(C8P). Cell lysates were immunoprecipitated with polyclonal anti-GFP antibody. The immunoprecipitates or the lysates were blotted with anti-myc or anti-GFP antibodies, respectively. The slower migrating form of GFP seen in lane 1 (asterisk)represents an alternative form of GFP produced from the wild-type (control) p-EGFP-Cl plasmid (http://clonotech.com). (B) Testes of three-week-old mice were homogenized in lysis buffer (0.1% Triton X-100, 50 mM Tris-HCl, pH7.5, 1 mM EDTA, plus protease inhibitor cocktail). The lysates were immunoprecipitated with control rabbit serum or polyclonal anti-mouse Bax antibody. The immunoprecipitates or the lysates were subjected to electrophoresis in Tris/Tricine gels (16% T, 3% C), electroblotted to PVDF membrane, and immunoblotted with polyclonal anti-HN antibody or monoclonal anti-Bax antibody 6A7 (Trevigen). (C) The affinity (Kd) of Bax/HN interaction was measured by fluorescence polarization assay, using various concentrations of purified recombinant Bax and 40 nM rhodamine-conjugated HN peptide. Control peptide from CD40 is also shown (mean +Std Dev; n=3).
(§2) Furthermore, multiple Bcl-2 family proteins were surveyed for interactions with Humanin by coimmunoprecipitation experiments (FIG. 5A).
(§3) Immunoblotting and immunoprecipitations were performed as follows. Immunoblotting was performed as described previously (Fields and Song, Nature 340:245-246 (1989)). For co-immunoprecipitations, cells were cultured in 50 uM […] Valine Alanine Asparate fluoromethyl-ketone (zVAD-fmk) to prevent apoptosis. Cells were suspended in lysis buffer (50 mM Tris-HCl, pH7.4; 150 mM NaCl; 20 mM EDTA; 50 mM NaF; 0.5% NP-40; 0.1 mM Na3VO4; 20 ug/ml Leupeptin; 20 ug/ml Aprotinin; 1 mM DTT; and 1 mM PMSF). Lysates (200 ul diluted in 1 ml final volume of lysis buffer) were cleared by incubation with 15 ul of protein G-Sepharose 4B (Zymed) and then incubated with 15 ul of polyclonal antibody and 15 ul of protein G at 4° C. overnight. Beads were then washed 4 times with 1.5 mls lysis buffer before boiling in Laemmli sample buffer and performing SDS-PAGE/immunoblotting.

The next assay has as its target Mcl-1 (Homo sapiens, UniProt Q07820). Described as above. In kind it is binding.
Source text: as §1, §2, §3

A further assay deals with Bcl-XL (Homo sapiens, UniProt Q07817). Described as above. In kind it is binding.
Source text: as §1, §2, §3

For a further assay, the target named is T2, Bax (S184K) (Mus musculus, UniProt Q07813, S184K).
T2 construct: expressed in transfected cells; host or cells: S. cerevisiae EGY48
As to the kind of experiment: Yeast two-hybrid assay. Format: binding. As to conditions: EGY48 cells, pGilda-Bax (S184K) and pYESTrp-Humanin. From the text:
A yeast two-hybrid system is designed to screen a cDNA library for a gene encoding a polypeptide that interacts with a known target (bait) polypeptide (Golemis, et al., In Current Protocols in Molecular Biology, John Wiley & Sons, Inc., Ch.20.0 and 20.1.(1996); Mendelsohn and Brent, Current Opinion in Biotechnology 5:482-486 (1994)). In this experiment, a S184K (a serine at position 184 in the transmembrane domain mutated to a lysine) mutant of mouse Bax was used as a bait, since the wild type Bax induces cell death in yeast.
Bax (S184K) cDNA was constructed in a pgilda yeast expression vector at EcoRV Xhol sites, producing a LexA-Bax fusion polypeptide. The prokaryotic LexA polypeptide, which functions as the DNA binding domain and binds to LexA operators, was used. A human adult testes cDNA library in a pYESTrp vector was purchased from Invitrogen. This library contains library cDNA fused with a B42 transcription activation domain (an 88-residue acidic E. coli peptide). The pGilda-Bax (S184K) and cDNA library plasmids were co-transfected into EGY48 yeast cells together with a reporter plasmid pSH18-34. The transformants were cultured on leucine-deficient galactose-containing media, which induces gene expression through the GAL1 promoter located within both the pGilda and pYESTrp vectors. […]

In another assay the target is T3, t-Bid (Homo sapiens, UniProt P55957).
T3 sequence (P55957 61-195 limits assumed): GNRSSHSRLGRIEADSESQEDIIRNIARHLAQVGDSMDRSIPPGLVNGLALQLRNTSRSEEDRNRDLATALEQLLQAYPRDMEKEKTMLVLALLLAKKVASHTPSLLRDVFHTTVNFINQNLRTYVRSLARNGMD
Nature of the assay: Bid-induced apoptosis in CSM14.1 cells (DAPI staining). Format: cell-based. Also on record: expressed in transfected cells; host or cells: CSM14.1 rat hippocampal neuronal cells. As to conditions: 24 hours after transfection. As to the method: Apoptosis was examined by DAPI staining. The data shown were obtained using the cytosolic form of Humanin; however, both cytosolic and mitochondrial forms of Humanin were tested and the results were the same.
Rat neuronal cell line CSM14.1 cells were transfected with various plasmids using the Lipofectamine reagent (Invitrogen). For transfection, 10×10^5 cells were plated per well using 6 well plates. Each well received 1 μg DNA plus […] of Lipofectamine. After 24 hours of transfection, the percentage of cell death was determined using 4′-6-diamidino-2-phenylindole (DAPI) staining. […] The data shown were obtained using the cytosolic form of Humanin; however, both cytosolic and mitochondrial forms of Humanin were tested and the results were the same.

Sequence of Bcl-XL (Q07817 whole entry, species assumed): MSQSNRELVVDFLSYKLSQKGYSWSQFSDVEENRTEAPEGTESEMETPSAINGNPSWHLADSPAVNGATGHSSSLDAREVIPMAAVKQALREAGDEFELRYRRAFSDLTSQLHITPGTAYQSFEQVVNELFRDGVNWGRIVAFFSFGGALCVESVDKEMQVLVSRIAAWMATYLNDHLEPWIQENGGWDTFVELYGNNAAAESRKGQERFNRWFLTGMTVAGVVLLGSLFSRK
T2 sequence (Q07813 whole entry S184K): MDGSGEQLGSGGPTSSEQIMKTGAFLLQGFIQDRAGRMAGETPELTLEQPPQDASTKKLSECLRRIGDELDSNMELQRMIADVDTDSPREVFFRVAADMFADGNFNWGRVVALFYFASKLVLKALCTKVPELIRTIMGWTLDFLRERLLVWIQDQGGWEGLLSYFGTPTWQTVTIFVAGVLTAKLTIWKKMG
Sequence of Mcl-1 (Q07820 whole entry, species assumed): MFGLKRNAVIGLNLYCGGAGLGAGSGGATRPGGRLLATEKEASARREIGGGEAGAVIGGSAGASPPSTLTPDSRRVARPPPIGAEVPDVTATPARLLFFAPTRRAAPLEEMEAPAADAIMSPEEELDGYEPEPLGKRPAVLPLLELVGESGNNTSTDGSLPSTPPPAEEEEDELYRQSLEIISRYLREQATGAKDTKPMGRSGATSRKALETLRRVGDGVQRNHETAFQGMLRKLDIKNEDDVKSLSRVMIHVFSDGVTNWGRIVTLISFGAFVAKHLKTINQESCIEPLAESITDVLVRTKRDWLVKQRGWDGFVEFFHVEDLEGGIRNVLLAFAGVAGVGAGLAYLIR

As for “GFP-HN: Wild-type full-length Humanin fused to Green Fluorescent Protein”, the “co-immunoprecipitation with Bcl-B” value with Bcl-B was “did not co-immunoprecipitate”. The “co-immunoprecipitation with Mcl-1” value in the assay with Mcl-1 was “did not co-immunoprecipitate”. Further, the “co-immunoprecipitation with Bcl-XL” value in the assay with Bcl-XL is “did not co-immunoprecipitate”.

Take “Humanin: 24 amino acid polypeptide, cytosolic form of human Humanin (SEQ ID NO:2); used as synthetic peptide or expressed fusion”: the “yeast growth on Leu-deficient media (two-hybrid interaction)” value with Bax (S184K) is recorded as “grew on Leu-media”. The Bid-induced apoptosis entry with t-Bid is “decreased”.

These data come from patent US7422862B2, “Methods for identifying modulators of apoptosis” (The Burnham Institute, priority 2001, dated 2008).
